# Assay results reported in PMC5841360.
# Target: mycGluA2 (recombinant) (UniProt P19491)
# Assay: co-IP with flag antibody, myc-GluA2 blot
# Settings: reference: wild type; sites Y421,Y466,Y482
substance,measurement,value
flag-cortactin (recombinant) (from UniProt Q60598) Y421F/Y466F/Y482F (TYM),binding against the reference,stronger
